The results in this text go back to PMC9735246 (Cell, 2022).

The target in test [1] is T1, Human β-tubulin (TBB5) (human, UniProt P07437 1-444). Kind of test: cross-linking.
Test [2] deals with T2, Human α-tubulin (TUBA1B) (human, UniProt P68363 1-451). Kind of test: cross-linking.
Test [3] has as its target T2, Human α-tubulin (TUBA1B). Kind of test: native gel or EMSA. A general note: In EMSA bound probe runs differently from free probe, usually more slowly.
Test [4] concerns the target T1, Human β-tubulin (TBB5). Kind of test: native gel or EMSA.

T1 sequence (P07437 whole entry): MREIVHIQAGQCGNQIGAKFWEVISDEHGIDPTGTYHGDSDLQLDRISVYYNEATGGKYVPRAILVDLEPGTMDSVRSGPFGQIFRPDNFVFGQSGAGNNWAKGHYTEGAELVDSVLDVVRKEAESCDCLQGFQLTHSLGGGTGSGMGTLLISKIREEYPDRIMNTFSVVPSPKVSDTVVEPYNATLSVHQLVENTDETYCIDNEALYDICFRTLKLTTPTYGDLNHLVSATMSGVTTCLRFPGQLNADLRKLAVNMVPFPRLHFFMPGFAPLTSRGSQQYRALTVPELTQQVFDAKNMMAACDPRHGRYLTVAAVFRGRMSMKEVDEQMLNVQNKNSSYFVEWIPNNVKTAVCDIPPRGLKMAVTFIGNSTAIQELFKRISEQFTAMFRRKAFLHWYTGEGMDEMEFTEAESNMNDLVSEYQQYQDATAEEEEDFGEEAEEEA
T2 sequence (P68363 whole entry): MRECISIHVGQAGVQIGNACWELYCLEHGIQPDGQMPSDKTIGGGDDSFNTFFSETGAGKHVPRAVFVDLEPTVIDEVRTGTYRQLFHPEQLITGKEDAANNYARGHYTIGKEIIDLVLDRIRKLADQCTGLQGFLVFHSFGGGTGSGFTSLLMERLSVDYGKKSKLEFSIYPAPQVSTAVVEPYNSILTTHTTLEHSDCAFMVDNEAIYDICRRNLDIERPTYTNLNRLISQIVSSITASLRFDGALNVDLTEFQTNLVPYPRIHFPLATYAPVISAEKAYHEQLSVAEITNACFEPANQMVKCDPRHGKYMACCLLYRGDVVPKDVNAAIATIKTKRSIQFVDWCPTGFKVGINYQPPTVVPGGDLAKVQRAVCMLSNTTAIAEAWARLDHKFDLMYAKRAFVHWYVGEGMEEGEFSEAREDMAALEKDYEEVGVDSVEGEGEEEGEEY

B1: PFD1, subunit of human Prefoldin (natural protein)
chain: MAAPVDLELKKAFTELQAKVIDTQQKVKLADIQIEQLNRTKKHAHLTDTEIMTLVDETNMYEGVGRMFILQSKEAIHSQLLEKQKIAEEKIKELEQKKSYLERSVKEAEDNIREMLMARRAQ
Take B1: the binding result in test [1] and in test [2] was “binds” each time.

B2: PFD3, subunit of human Prefoldin (natural protein)
chain: MAAVKDSCGKGEMATGNGRRLHLGIPEAVFVEDVDSFMKQPGNETADTVLKKLDEQYQKYKFMELNLAQKKRRLKGQIPEIKQTLEILKYMQKKKESTNSMETRFLLADNLYCKASVPPTDKVCLWLGANVMLEYDIDEAQALLEKNLSTATKNLDSLEEDLDFLRDQFTTTEVNMARVYNWDVKRRNKDDSTKNKA
As to B2, the binding result in test [1] and in test [2] was “binds” each time.

B3: TBCB (natural protein, UniProt Q99426 1-244, looked up)
chain: MEVTGVSAPTVTVFISSSLNTFRSEKRYSRSLTIAEFKCKLELLVGSPASCMELELYGVDDKFYSKLDQEDALLGSYPVDDGCRIHVIDHSGARLGEYEDVSRVEKYTISQEAYDQRQDTVRSFLKRSKLGRYNEEERAQQEAEAAQRLAEEKAQASSIPVGSRCEVRAAGQSPRRGTVMYVGLTDFKPGYWIGVRYDEPLGKNDGSVNGKRYFECQAKYGAFVKPAVVTVGDFPEEDYGLDEI
Consider B3, for which the binding result in test [3] is given as “binds”.

B4: TBCA (natural protein, UniProt O75347 1-108, looked up)
chain: MADPRVRQIKIKTGVVKRLVKEKVMYEKEAKQQEEKIEKMRAEDGENYDIKKQAEILQESRMMIPDCQRRLEAAYLDLQRILENEKDLEEAEEYKEARLVLDSVKLEA
Turning to B4, in test [4], the binding result is recorded as “binds”.
